Measured values from article PMC4674563.

Target: Photosystem II core complex from solubilized grana (SG-PSII) (Nicotiana tabacum (endogenous in thylakoids) | Nicotiana tabacum) (UniProt P69556)
Experiment: SEC + native gel or EMSA; Ni-NTA-purified PSII pools on Superose 6 in 40 mM MES-NaOH pH 6.5, 20 mM NaCl, 5 mM MgCl2, 1 mM CaCl2, 10 mM NaHCO3, 0.01% β-DDM; pools and fractions checked by BN-PAGE (3-12% gradient, 4°C); C2 also seen by negative-stain TEM

stoichiometry N: 2
Substance: Photosystem II core complex from solubilized grana (SG-PSII) (from UniProt P69556 1-344; P06411 1-508; P06413 15-473; P69686 1-353; P69384 1-83; P06415 1-73; P60139 1-38; Q40519 38-136)
